Data from patent US20090143319.

Legend:
[1] = system: NF-kB; test: cell_activity; conditions: NF-kB SEAP reporter, 0.1 uM
[2] = target: NF-kB p65 (RelA) (UniProt Q04206); test: competition; conditions: unit not given
Chain of NF-kB p65 (RelA) (Q04206 whole entry): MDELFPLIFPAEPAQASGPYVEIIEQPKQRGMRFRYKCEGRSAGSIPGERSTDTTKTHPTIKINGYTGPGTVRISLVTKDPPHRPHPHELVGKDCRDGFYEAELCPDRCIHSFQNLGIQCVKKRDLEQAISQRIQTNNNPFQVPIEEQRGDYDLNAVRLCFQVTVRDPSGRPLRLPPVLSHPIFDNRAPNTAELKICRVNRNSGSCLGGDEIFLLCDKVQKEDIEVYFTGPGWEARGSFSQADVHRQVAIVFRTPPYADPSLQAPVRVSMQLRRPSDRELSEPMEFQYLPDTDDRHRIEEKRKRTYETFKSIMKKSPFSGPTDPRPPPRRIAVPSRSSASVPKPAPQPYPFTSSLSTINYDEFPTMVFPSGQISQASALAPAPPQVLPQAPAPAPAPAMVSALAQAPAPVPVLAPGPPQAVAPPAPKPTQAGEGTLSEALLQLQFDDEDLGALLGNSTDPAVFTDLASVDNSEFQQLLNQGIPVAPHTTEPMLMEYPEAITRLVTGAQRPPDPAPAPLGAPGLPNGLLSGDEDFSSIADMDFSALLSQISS

Sequence GAGGGGATTTCCCC (double strand) [SEQ-34] has an activity ([1]; PS (*): G*A*GGGGATTT*C*CCC / antisense 5'-G*GGGAAA*T*C*CCCTC) of 99 % inhibition.
“AGTATCGGGGATTTCCCCTTAAC (double strand) [SEQ-E]” gave an IC50 [2] of 1.91.
“TTGAGGGGATTTCCCC (double strand) [SEQ-36]” gave an activity ([1]; PS (*): T*TG*A*GGGGATTT*C*CCC / antisense 5'-G*GGGAAA*T*C*CCCTCAA) of 80 % inhibition.
Work on “ACCAGGGGATTTCCCCGTCCCAC (double strand) [SEQ-G]” yielded an IC50 [2] of 1.71.
“CCTTGAAGGGATTTCCCTCC (double strand) [SEQ-1]” showed an IC50 ([2]; PS (*): C*C*TTGAAGG*G*A*TTTCCCT*C*C / G*G*AGGGAAA*T*C*CCTTCAA*G*G) of 0.84.
With “AGCTGGGGATTTCCCCTTTG (double strand) [SEQ-F]” the IC50 [2] was 3.4.
“TTGAGGGGATTTCCCC (double strand) [SEQ-38]” gave an activity ([1]; PS (*): TTG*A*GGGGATTT*C*CCC / antisense 5'-GGGGAAA*T*C*CCCTCAA) of 90 % inhibition.
With GAGGGGATTTCCCC (double strand) [SEQ-33] the activity ([1]; PS (*): G*A*GGGGATTT*C*CCC / antisense 5'-GGGGAAA*T*C*CCCTC) was 70 % inhibition.
With “TTGAGGGGATTTCCCC (double strand) [SEQ-37]” the activity ([1]; PS (*): T*T*G*A*GGGGATTT*C*CCC / antisense 5'-G*G*GGAAA*T*C*CCCTCAA) was 75 % inhibition.
“CCTTGAGGGGATTTCCCCCC (double strand) [SEQ-9]” was tested, and the activity ([1]; PS (*): C*C*TTG*A*GGGGATTT*C*CCCCC / antisense 5'-G*G*GGGGAAA*T*C*CCCTCAAGG) was 70 % inhibition.
With “CCTTGAGGGGATTTCCCCCC (double strand) [SEQ-I]” the IC50 [2] was 0.384.
Sequence “AGTTGAGGGGATTTCCCCGC (double strand) [SEQ-H]” has an IC50 [2] of 1.08.
“CCTTGAAGGGATTTCCCTCC (double strand) [SEQ-x (full PS)]” was tested, and the IC50 ([2]; PS at all positions, both strands, 2.60 in Table 3) was 3.97.
Sequence “CCTTGAGGGGATTTCCCCCC (double strand) [SEQ-I-PS]” has an IC50 ([2]; PS at 2 bonds at each end of both strands) of 1.06.
Work on GAGGGGATTTCCCC (double strand) [SEQ-35] yielded an activity ([1]; PS (*): G*A*GGGGATTT*C*CCC / antisense 3'-CTCCC*C*T*AAAG*G*GGG (so in the source)) of 70 % inhibition.
In the case of “AGTTGAGGGGATTTCCCCAGGC (double strand) [SEQ-A]”, the IC50 ([2]; ELISA competition with immobilized NF-kB site, room temperature) is reported as 1.51.
